Experimental data taken from paper PMC10018337.

Columns and labels:
Experiment in all cases: EMSA
CeMETT10-FLΔL = molecular target: T1, CeMETT10-FLΔL (Caenorhabditis elegans, UniProt Q09357 1-479, del386-430)
T1 sequence: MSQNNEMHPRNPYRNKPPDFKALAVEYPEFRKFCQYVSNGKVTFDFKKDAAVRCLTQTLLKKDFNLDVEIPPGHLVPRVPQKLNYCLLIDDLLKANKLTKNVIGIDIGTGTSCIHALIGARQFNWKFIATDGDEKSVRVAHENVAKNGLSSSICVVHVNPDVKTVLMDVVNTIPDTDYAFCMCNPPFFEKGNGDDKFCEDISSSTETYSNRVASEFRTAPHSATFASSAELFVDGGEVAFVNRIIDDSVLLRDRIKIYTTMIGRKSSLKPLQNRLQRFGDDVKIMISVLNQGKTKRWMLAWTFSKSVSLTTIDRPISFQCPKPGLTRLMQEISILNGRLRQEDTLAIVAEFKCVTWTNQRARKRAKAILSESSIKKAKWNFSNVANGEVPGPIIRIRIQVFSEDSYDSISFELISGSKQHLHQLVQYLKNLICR

CeMETT10-FLΔL_RRR/7E = molecular target: T2, CeMETT10-FLΔL_RRR/7E (Caenorhabditis elegans, UniProt Q09357 1-479, R360E;A361E;R362E;K363E;R364E;A365E;K366E;del386-430)
T2 sequence: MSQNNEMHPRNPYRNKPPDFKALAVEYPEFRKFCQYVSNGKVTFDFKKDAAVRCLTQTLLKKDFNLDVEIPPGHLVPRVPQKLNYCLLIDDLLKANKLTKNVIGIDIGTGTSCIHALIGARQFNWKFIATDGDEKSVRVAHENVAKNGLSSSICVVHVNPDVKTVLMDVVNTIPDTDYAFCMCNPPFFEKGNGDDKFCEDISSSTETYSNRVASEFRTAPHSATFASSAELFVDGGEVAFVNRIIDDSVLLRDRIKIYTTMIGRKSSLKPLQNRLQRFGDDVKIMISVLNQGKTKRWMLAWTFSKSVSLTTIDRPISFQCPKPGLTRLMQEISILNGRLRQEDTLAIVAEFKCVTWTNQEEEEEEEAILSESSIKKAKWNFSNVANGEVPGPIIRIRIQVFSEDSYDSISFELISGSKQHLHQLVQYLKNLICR

CeMETT10-MTD = molecular target: T3, CeMETT10-MTD (Caenorhabditis elegans, UniProt Q09357 1-314)
T3 sequence: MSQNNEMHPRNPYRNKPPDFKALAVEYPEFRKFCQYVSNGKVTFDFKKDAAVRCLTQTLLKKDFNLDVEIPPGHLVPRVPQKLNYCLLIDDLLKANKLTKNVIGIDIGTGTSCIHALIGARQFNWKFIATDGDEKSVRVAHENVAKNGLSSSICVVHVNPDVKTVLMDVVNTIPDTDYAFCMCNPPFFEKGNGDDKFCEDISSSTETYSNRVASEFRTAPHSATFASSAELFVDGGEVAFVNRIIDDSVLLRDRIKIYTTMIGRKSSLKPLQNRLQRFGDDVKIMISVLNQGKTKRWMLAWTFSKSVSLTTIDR

B1: sams-hp-ls (structured_RNA)
RNA: GGCAACAAUAUGUUUCUUUACCUGUUACAACGGUUACUUUGAUUACAGAAACGGUGACUAAAACGGGUAUGAUCAUGUUGUGCCC
Kd (CeMETT10-FLΔL): 0.14 µM
Kd (CeMETT10-FLΔL_RRR/7E): 8.3 µM
Kd (CeMETT10-MTD): 22.3 µM
